Measured values published in patent publication US20230256092A1, “COMBINED USE OF ANTI-CCR8 ANTIBODY AND CHEMOTHERAPEUTIC AGENT” (Shionogi & Co., Ltd., priority 2020, published 2023).
Where a chain is given by its changes, count along the chain named. Numbers in names are those of the source.

B1: h10A11 (IGKV4-1/IGHV3-73 T31A) (antibody, name in Kabat numbering, V domains shown)
VH: EVQLVESGGGLVQPGGSLKLSCAASGFAFNAYALYWVRQASGKGLEWVGRIRSKSNNYATYYADSVKDRFTISRDDSKNTAYLQMNSLKTEDTAVYYCTRARFYYSDYGYAMDYWGQGTLVTVSS
VL: DIVMTQSPDSLAVSLGERATINCRSSKSLLHSNGNTYLYWYQQKPGQPPKLLIYRMSNLASGVPDRFSGSGSGTDFTLTISSLQAEDVAVYYCMQHLEYPLTFGQGTKLEIKR
B2: h10A11 (IGKV4-1/IGHV3-73 T57S) (antibody, name in Kabat numbering, V domains shown)
VH: B1 VH with A31T, T60S
VL: B1 VL
B3: h10A11 (IGKV4-1/IGHV3-73 K64R) (antibody, name in Kabat numbering, V domains shown)
VH: B1 VH with A31T, K67R
VL: B1 VL
B4: h10A11 (IGKV4-1/IGHV3-73 N53Q) (antibody, name in Kabat numbering, V domains shown)
VH: B1 VH with A31T, N56Q
VL: B1 VL
B5: h10A11 (IGKV4-1/IGHV3-73 Y55F) (antibody, name in Kabat numbering, V domains shown)
VH: B1 VH with A31T, Y58F
VL: B1 VL
B6: h10A11 (IGKV4-1/IGHV3-73 A56V) (antibody, name in Kabat numbering, V domains shown)
VH: B1 VH with A31T, A59V
VL: B1 VL
B7: h10A11 (IGKV4-1/IGHV3-73 F97L) (antibody, name in Kabat numbering, V domains shown)
VH: B1 VH with A31T, F103L
VL: B1 VL
B8: h10A11 (IGKV4-1/IGHV3-73 D65E) (antibody, name in Kabat numbering, V domains shown)
VH: B1 VH with A31T, D68E
VL: B1 VL
B9: h10A11 (IGKV4-1/IGHV3-73 M100fL) (antibody, name in Kabat numbering, V domains shown)
VH: B1 VH with A31T, M112L
VL: B1 VL
B10: h10A11 (IGKV4-1/IGHV3-73 D61E) (antibody, name in Kabat numbering, V domains shown)
VH: B1 VH with A31T, D64E
VL: B1 VL
B11: h10A11 (IGKV4-1/IGHV3-73 A33V) (antibody, name in Kabat numbering, V domains shown)
VH: B1 VH with A31T, A33V
VL: B1 VL
B12: h10A11 (IGKV4-1/IGHV3-73 K52bR) (antibody, name in Kabat numbering, V domains shown)
VH: B1 VH with A31T, K54R
VL: B1 VL
B13: h10A11 (IGKV4-1/IGHV3-73 Y35F) (antibody, name in Kabat numbering, V domains shown)
VH: B1 VH with A31T, Y35F
VL: B1 VL
B14: h10A11 (IGKV4-1/IGHV3-73 Y100dF) (antibody, name in Kabat numbering, V domains shown)
VH: B1 VH with A31T, Y110F
VL: B1 VL
B15: h10A11 (IGKV4-1/IGHV3-73 S52cT) (antibody, name in Kabat numbering, V domains shown)
VH: B1 VH with A31T, S55T
VL: B1 VL
B16: h10A11 (IGKV4-1/IGHV3-73 R52K) (antibody, name in Kabat numbering, V domains shown)
VH: B1 VH with A31T, R52K
VL: B1 VL
B17: h10A11 (IGKV4-1/IGHV3-73 A60V) (antibody, name in Kabat numbering, V domains shown)
VH: B1 VH with A31T, A63V
VL: B1 VL
B18: h10A11 (IGKV4-1/IGHV3-73 Y58F) (antibody, name in Kabat numbering, V domains shown)
VH: B1 VH with A31T, Y61F
VL: B1 VL
B19: h10A11 (IGKV4-1/IGHV3-73 D101E) (antibody, name in Kabat numbering, V domains shown)
VH: B1 VH with A31T, D113E
VL: B1 VL
B20: h10A11 (IGKV4-1/IGHV3-73 S52aT) (antibody, name in Kabat numbering, V domains shown)
VH: B1 VH with A31T, S53T
VL: B1 VL
B21: h10A11 (IGKV4-1/IGHV3-73 Y99F) (antibody, name in Kabat numbering, V domains shown)
VH: B1 VH with A31T, Y105F
VL: B1 VL
B22: h10A11 (IGKV4-1/IGHV3-73 V63L) (antibody, name in Kabat numbering, V domains shown)
VH: B1 VH with A31T, V66L
VL: B1 VL
B23: h10A11 (IGKV4-1/IGHV3-73 Y100bF) (antibody, name in Kabat numbering, V domains shown)
VH: B1 VH with A31T, Y108F
VL: B1 VL
B24: h10A11 (IGKV4-1/IGHV3-73 S62T) (antibody, name in Kabat numbering, V domains shown)
VH: B1 VH with A31T, S65T
VL: B1 VL
B25: h10A11 (IGKV4-1/IGHV3-73 R50K) (antibody, name in Kabat numbering, V domains shown)
VH: B1 VH with A31T, R50K
VL: B1 VL
B26: h10A11 (IGKV4-1/IGHV3-73 A100eV) (antibody, name in Kabat numbering, V domains shown)
VH: B1 VH with A31T, A111V
VL: B1 VL
B27: h10A11 (IGKV4-1/IGHV3-73 Y59F) (antibody, name in Kabat numbering, V domains shown)
VH: B1 VH with A31T, Y62F
VL: B1 VL
B28: h10A11 (IGKV4-1/IGHV3-73 Y32F) (antibody, name in Kabat numbering, V domains shown)
VH: B1 VH with A31T, Y32F
VL: B1 VL
B29: h10A11 (IGKV4-1/IGHV3-73 R96K) (antibody, name in Kabat numbering, V domains shown)
VH: B1 VH with A31T, R102K
VL: B1 VL
B30: h10A11 (IGKV4-1/IGHV3-73 L34I) (antibody, name in Kabat numbering, V domains shown)
VH: B1 VH with A31T, L34I
VL: B1 VL
B31: h10A11 (IGKV4-1/IGHV3-73 I51L) (antibody, name in Kabat numbering, V domains shown)
VH: B1 VH with A31T, I51L
VL: B1 VL
B32: h10A11 (IGKV4-1/IGHV3-73 S100T) (antibody, name in Kabat numbering, V domains shown)
VH: B1 VH with A31T, S106T
VL: B1 VL
B33: h10A11 (IGKV4-1/IGHV3-73 G100cA) (antibody, name in Kabat numbering, V domains shown)
VH: B1 VH with A31T, G109A
VL: B1 VL
B34: h10A11 (IGKV4-1/IGHV3-73 D100aE) (antibody, name in Kabat numbering, V domains shown)
VH: B1 VH with A31T, D107E
VL: B1 VL
B35: h10A11 (IGKV4-1/IGHV3-73 Y98F) (antibody, name in Kabat numbering, V domains shown)
VH: B1 VH with A31T, Y104F
VL: B1 VL
B36: h10A11 (IGKV4-1/IGHV3-73 Y102F) (antibody, name in Kabat numbering, V domains shown)
VH: B1 VH with A31T, Y114F
VL: B1 VL

Target: human CCR8 (human) (UniProt P51685)
Experiment: cell-based or functional assay

Binder | IC50 ratio (WT IC50/mutant IC50) | IC50 (n.d. = IC50 of the mutant is 10 nM or more)
B1 | 0.17 | 
B2 | 0.49 | 
B3 | 0.54 | 
B4 | 0.03 | 
B5 | 0.47 | 
B6 | 0.55 | 
B7 |  | > 10 nM
B8 | 1.3 | 
B9 | 0.72 | 
B10 | 0.25 | 
B11 |  | > 10 nM
B12 | 0.47 | 
B13 |  | > 10 nM
B14 | 0.55 | 
B15 | 0.53 | 
B16 |  | > 10 nM
B17 | 0.67 | 
B18 | 0.5 | 

Binder | IC50 ratio (WT IC50/mutant IC50) | IC50 (n.d. = IC50 of the mutant is 10 nM or more)
B19 |  | > 10 nM
B20 | 0.22 | 
B21 | 0.8 | 
B22 | 0.56 | 
B23 | 0.75 | 
B24 | 1.6 | 
B25 | 0.12 | 
B26 | 0.49 | 
B27 | 0.03 | 
B28 | 0.44 | 
B29 |  | > 10 nM
B30 | 0.43 | 
B31 | 0.22 | 
B32 | 0.64 | 
B33 | 0.07 | 
B34 | 0.3 | 
B35 | 0.07 | 
B36 | 0.99 | 
